B1: snRNA-activating protein complex subunit 5 (Homo sapiens), O75971 (parent)
chain: MLSRLQELRKEEETLLRLKAALHDQLNRLKVEELALQSMISSRRGDEMLSSHTVPEQSHDMLVHVDNEASINQTTLELSTKSHVTEEEEEEEEEESDS
partner: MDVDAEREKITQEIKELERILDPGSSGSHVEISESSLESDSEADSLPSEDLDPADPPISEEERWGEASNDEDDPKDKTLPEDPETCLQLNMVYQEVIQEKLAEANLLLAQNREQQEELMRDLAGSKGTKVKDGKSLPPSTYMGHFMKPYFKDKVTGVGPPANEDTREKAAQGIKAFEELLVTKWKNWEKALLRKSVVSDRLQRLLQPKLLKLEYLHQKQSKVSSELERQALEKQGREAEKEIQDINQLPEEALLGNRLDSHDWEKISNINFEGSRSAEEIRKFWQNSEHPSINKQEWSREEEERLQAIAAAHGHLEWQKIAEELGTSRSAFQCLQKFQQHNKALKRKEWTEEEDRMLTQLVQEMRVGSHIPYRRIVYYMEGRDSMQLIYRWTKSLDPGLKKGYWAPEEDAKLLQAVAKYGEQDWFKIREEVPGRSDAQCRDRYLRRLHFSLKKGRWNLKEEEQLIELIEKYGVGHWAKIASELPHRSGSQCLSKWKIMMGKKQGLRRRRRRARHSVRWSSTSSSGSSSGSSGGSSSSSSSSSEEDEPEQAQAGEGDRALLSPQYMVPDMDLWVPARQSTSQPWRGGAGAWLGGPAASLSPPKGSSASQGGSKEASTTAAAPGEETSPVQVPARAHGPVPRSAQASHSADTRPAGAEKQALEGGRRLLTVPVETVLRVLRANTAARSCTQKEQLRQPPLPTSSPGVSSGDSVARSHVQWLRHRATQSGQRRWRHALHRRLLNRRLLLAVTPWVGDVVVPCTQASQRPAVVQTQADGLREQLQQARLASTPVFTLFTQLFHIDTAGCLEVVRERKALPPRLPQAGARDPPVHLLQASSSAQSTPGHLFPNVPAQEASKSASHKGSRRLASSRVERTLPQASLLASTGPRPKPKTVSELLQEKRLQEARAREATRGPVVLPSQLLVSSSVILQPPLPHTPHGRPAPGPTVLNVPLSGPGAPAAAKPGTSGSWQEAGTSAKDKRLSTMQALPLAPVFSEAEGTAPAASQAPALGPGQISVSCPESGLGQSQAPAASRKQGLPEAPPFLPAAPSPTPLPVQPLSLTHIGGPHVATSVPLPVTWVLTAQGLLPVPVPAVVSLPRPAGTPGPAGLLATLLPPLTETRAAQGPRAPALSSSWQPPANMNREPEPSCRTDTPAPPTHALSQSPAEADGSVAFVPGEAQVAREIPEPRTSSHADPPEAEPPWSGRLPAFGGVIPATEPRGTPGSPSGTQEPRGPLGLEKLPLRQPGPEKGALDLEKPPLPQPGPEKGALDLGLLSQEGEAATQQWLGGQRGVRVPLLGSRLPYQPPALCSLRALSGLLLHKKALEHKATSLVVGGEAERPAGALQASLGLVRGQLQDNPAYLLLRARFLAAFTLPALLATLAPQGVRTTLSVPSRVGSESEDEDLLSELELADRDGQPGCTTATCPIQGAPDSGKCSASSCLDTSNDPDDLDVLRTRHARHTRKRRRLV
B2: snRNA-activating protein complex subunit 4 (Homo sapiens), Q5SXM2 (parent)
chain: B1 partner
partner: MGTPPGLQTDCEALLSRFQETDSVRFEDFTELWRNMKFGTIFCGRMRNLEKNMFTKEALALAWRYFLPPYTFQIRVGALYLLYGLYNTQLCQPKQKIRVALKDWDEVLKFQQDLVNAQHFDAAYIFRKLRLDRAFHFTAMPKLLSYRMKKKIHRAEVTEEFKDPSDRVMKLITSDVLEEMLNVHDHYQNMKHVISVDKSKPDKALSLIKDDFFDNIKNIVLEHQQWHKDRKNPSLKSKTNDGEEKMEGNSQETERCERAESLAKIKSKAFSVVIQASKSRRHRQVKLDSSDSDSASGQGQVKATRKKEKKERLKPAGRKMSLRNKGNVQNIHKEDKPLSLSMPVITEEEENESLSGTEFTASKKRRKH
B3: snRNA-activating protein complex subunit 4 (Homo sapiens), Q5SXM2 (parent)
chain: B1 partner
partner: B1 chain

Variants of: B1
Settings: with snpc4_human SNAPC4, Q5SXM2

| Variant | effect of a mutation on the interaction |
| --- | --- |
| L29A;L36A | disrupting interaction strength |
| L8A | decreasing interaction strength |
| L18A | decreasing interaction strength |
| L15A;L22A | disrupting interaction strength |

Variants of: B2
Settings: with snpc1_human SNAPC1, Q16533

| Variant | effect of a mutation on the interaction |
| --- | --- |
| L1364A | disrupting interaction strength |
| L1311A | decreasing interaction strength |
| L1369A | decreasing interaction strength |
| L1297A;Q1304A | with no effect |
| L1301A;L1308A | decreasing interaction strength |
| L1355A;L1362A | disrupting interaction strength |
| L1314A | disrupting interaction strength |

Variants of: B3
Settings: with snpc5_human SNAPC5, O75971

| Variant | effect of a mutation on the interaction |
| --- | --- |
| Q94L | disrupting interaction strength |
| Q94A | disrupting interaction strength |
| L101A;L108A | disrupting interaction strength |
| L89A;V96A | decreasing interaction strength |
| Q115L | disrupting interaction strength |
| Q115A;L122A | disrupting interaction strength |
| L87A;Q94A | disrupting interaction strength |

Source: IntAct's records for PubMed 11056176
